Results from patent publication US20170355763A1 (published 2017).

Biological target: T1, purified, recombinant human IL-31 fused at the C-terminal with a peptide consisting of the sequence EYMPME … (human, UniProt Q6EBC2 27-164)
T1 construct: also called human IL-31-CEE; rIL31
T1 sequence: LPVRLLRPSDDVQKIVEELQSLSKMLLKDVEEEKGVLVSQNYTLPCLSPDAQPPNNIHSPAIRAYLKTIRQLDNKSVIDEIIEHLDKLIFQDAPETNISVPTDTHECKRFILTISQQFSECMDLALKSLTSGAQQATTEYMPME
Experiment: capture ELISA: mAb of supernatant captured on anti-mouse IgG Fc, biotinylated IL-31-CEE
Method: These new supernatants were tested using the cell-based neutralization assay (serial 3-fold dilutions starting with neat supernatant and proceeding to a final 1:243 dilution) as well as a “capture” style ELISA assay similar to that used in the development of the rat anti-murine IL-31 mAbs with the following differences; 1) sheep anti-mouse IgG, Fc specific antibody (Jackson Immunoresearch) (1 ug/mL) as plate coating antibody, 2) plates blocked once with PBS-Tween+1% BSA for 1 hr, 3) a single titration of each supernatant added to wells (serial 3-fold dilutions starting with neat supernatant and proceeding to a final 1:2187 dilution), and 4) addition of biotinylated IL-31-CEE (3:1 molar ratio of biotin:protein), 200 ng/mL. This assay was felt to be more pertinent than the binding of antibody to plate bound IL-31-CEE as it assessed the ability of antibody to bind to IL-31-CEE in solution, a property essential to a good antibody for sandwich style ELISAs. It was in fact observed that a number of the master wells supernatants containing antibody that bound well to plate bound IL-31-CEE poorly recognized this molecule in solution.
To reduce the number of hybridomas going into further subcloning, two new assays were performed with exhausted supernatant from each of the selected first round clones. […]

B1: mouse anti-human IL-31 mAb 294.144.3.5 (antibody, mouse IgG1, V domains shown)
VL: ENVLTQSPAIMSASPGERVTMTCSASSSVSYMHWYQQKSSNSPKLWIYDTTKLASGVPGRFSGSGSGNSYSLTISSMEAEDVATYFCFQGSEHPLTFGGGTTLEI
VH: QVQLQQSGPELMKPGASVKISCKATGYTFSTYWIEWIKQRPGHGLEWIGEILPGRGTTNYNAKFQGKATFTAETSSNTAYMQLSSLTSEDSAVYYCTTESKLGDDDYWQGTTLTVSS
notes: Mouse IgG1; also called ATCC PTA-6873
- EC50: 0.0134 µg/mL
